Like-named read-outs stand apart in the source and are kept apart here. One block for each molecule: values may come before it.
Legend:
FtsZ [1] = target: FtsZ (UniProt P0A9A6); test: FRAP; membrane-bound filament network at steady state (15 min), small area bleached; half-time from fit to I(t) = a(1 - exp(-bt))
FtsZ [2] = target: FtsZ (UniProt P0A9A6); test: single-molecule tracking by TIRF microscopy; small amounts of Cy5-labelled FtsZ (<2 nM) in 1.5 uM Alexa488-FtsZ, or of ZapA-Cy5 in unlabeled ZapA with 1.5 uM Alexa488-FtsZ, on supported bilayers; lifetime from a mono-exponential fit, corrected for photobleaching
FtsZ [3] = target: FtsZ (UniProt P0A9A6); test: as above; remark: listed apart in the source
FtsZ [4] = target: T1, FtsZ (UniProt P0A9A6 1-383, Cy5 or Alexa488 label on part of the protein (30% labelled in the self-organization assay; <2 nM Cy5-labelled FtsZ in 1.5 uM Alexa488-labelled FtsZ for single molecules); labelled site not stated); test: cell-based or functional assay
T1 sequence (looked up): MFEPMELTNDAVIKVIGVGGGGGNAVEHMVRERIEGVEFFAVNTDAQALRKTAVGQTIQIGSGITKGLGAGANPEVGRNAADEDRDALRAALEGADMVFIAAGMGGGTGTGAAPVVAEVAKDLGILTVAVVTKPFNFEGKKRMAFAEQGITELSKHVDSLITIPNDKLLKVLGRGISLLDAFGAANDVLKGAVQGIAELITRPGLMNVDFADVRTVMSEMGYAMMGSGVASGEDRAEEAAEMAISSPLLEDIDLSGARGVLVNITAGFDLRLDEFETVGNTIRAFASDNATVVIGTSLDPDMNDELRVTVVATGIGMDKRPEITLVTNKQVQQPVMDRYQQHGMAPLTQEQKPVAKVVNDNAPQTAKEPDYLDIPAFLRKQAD

[5] = target: the molecule itself; test: SEC; size-exclusion chromatography of ZapA wild type and mutants; conditions not shown

Molecule: ZapA-Cy5 (from UniProt P0ADS2 1-109) (natural protein)
FRAP half-time of recovery (FtsZ [1]): 3.01 s
single-molecule lifetime (FtsZ [2]): 0.94 s
single-molecule lifetime (FtsZ [3]): 0.95

EC50 of ZapA for the correlation length of the FtsZ filament network at steady state (ρss) (FtsZ [4]): 1050 nM
EC50 of ZapA for the mean curvature of the FtsZ filament network at steady state (kss) (FtsZ [4]): 840 nM
B1: ZapA wild type (natural protein, UniProt P0ADS2 1-109, looked up)
chain: MSAQPVDIQIFGRSLRVNCPPDQRDALNQAADDLNQRLQDLKERTRVTNTEQLVFIAALNISYELAQEKAKTRDYAASMEQRIRMLQQTIEQALLEQGRITEKTNQNFE
notes: ZapA, FtsZ-associated protein; also called ZapA WT; source: purified protein; protocols in the Supplementary Information
stoichiometry N [5]: 4

— publication PMC6917738, “Cooperative ordering of treadmilling filaments in cytoskeletal networks of FtsZ and its crosslinker ZapA” (Nature Communications, 2019)
